Assay results: article PMC3458577 (Nucleic Acids Research, 2012)
Values belong to the binder of their own block, whether it stands above or below them.

Target: Recombinant human WRN protein (wild type) (human, UniProt Q14191 1-1432)
Test: co-IP

Recombinant human WRN protein (wild type), sequence (Q14191 whole entry): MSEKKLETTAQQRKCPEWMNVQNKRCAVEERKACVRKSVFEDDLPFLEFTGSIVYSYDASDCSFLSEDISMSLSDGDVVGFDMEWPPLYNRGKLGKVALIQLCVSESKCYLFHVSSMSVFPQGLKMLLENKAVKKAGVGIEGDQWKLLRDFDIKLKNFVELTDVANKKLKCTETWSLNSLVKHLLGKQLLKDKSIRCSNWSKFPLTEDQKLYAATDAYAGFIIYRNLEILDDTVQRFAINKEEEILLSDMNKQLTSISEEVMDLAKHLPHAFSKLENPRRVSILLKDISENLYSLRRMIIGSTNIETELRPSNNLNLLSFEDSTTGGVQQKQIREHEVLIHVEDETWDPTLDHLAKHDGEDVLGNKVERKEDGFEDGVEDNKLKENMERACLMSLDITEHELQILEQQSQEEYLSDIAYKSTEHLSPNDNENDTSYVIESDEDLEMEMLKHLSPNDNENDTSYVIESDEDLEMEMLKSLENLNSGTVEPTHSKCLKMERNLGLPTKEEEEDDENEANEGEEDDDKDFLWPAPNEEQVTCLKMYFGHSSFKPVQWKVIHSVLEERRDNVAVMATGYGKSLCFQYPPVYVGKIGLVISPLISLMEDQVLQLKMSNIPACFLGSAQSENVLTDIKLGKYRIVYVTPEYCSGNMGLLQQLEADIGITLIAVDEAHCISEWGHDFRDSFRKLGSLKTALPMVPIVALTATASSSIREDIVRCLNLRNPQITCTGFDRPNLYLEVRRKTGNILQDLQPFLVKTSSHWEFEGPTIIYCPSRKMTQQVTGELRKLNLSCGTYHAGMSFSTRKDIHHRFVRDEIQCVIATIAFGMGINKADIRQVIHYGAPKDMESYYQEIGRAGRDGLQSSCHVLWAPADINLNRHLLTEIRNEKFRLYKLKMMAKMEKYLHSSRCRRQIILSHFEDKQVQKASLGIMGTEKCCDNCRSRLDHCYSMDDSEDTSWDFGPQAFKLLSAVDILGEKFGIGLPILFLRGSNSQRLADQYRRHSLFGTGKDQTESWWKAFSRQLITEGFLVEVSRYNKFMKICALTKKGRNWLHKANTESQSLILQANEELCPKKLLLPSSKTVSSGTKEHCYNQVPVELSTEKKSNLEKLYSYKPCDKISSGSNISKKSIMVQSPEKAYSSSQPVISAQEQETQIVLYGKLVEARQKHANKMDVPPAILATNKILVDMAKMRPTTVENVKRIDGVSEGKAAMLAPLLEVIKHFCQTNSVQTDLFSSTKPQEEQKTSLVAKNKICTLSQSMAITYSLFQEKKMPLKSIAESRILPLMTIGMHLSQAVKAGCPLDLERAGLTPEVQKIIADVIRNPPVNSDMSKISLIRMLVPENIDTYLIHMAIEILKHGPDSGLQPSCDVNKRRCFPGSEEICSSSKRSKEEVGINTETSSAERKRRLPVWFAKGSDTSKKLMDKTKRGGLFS

binding result: binds
B1: Recombinant human Polλ protein (enzyme, UniProt Q9UGP5 1-575, looked up)
chain: MDPRGILKAFPKRQKIHADASSKVLAKIPRREEGEEAEEWLSSLRAHVVRTGIGRARAELFEKQIVQHGGQLCPAQGPGVTHIVVDEGMDYERALRLLRLPQLPPGAQLVKSAWLSLCLQERRLVDVAGFSIFIPSRYLDHPQPSKAEQDASIPPGTHEALLQTALSPPPPPTRPVSPPQKAKEAPNTQAQPISDDEASDGEETQVSAADLEALISGHYPTSLEGDCEPSPAPAVLDKWVCAQPSSQKATNHNLHITEKLEVLAKAYSVQGDKWRALGYAKAINALKSFHKPVTSYQEACSIPGIGKRMAEKIIEILESGHLRKLDHISESVPVLELFSNIWGAGTKTAQMWYQQGFRSLEDIRSQASLTTQQAIGLKHYSDFLERMPREEATEIEQTVQKAAQAFNSGLLCVACGSYRRGKATCGDVDVLITHPDGRSHRGIFSRLLDSLRQEGFLTDDLVSQEENGQQQKYLGVCRLPGPGRRHRRLDIIVVPYSEFACALLYFTGSAHFNRSMRALAKTKGMSLSEHALSTAVVRNTHGCKVGPGRVLPTPTEKDVFRLLGLPYREPAERDW

binding result: binds
B2: (His)6-tagged Polλ244–575 (domain or fragment, human, UniProt Q9UGP5 244-575, looked up)
chain: PSSQKATNHNLHITEKLEVLAKAYSVQGDKWRALGYAKAINALKSFHKPVTSYQEACSIPGIGKRMAEKIIEILESGHLRKLDHISESVPVLELFSNIWGAGTKTAQMWYQQGFRSLEDIRSQASLTTQQAIGLKHYSDFLERMPREEATEIEQTVQKAAQAFNSGLLCVACGSYRRGKATCGDVDVLITHPDGRSHRGIFSRLLDSLRQEGFLTDDLVSQEENGQQQKYLGVCRLPGPGRRHRRLDIIVVPYSEFACALLYFTGSAHFNRSMRALAKTKGMSLSEHALSTAVVRNTHGCKVGPGRVLPTPTEKDVFRLLGLPYREPAERDW
